The supplement of paper PMC9170038

Tested on: K4 kissing-loop RNA reporter
Assay: apparent KD of K4 kissing-loop reporter; higher = weaker reporter binding
Details: Eterna round: R107
Description: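 RNA-MaP round R107: designed RNA switches with theophylline, tryptophan, arginine or FMN aptamers are transcribed on-chip within common flanks. They are titrated with a labelled K4 kissing-loop RNA reporter in RNA-MaP buffer (100 mM Tris pH 7.5, 80 mM KCl, 4 mM MgCl2), without ligand or with the indicated ligand. Median apparent KD per design.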

[1] = input ligand: theophylline 20 uM
[2] = input ligand: tryptophan 2.4 mM
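Note: bound reporter read as fluorescence of individual clusters on recovered sequencing chips by microscopy, with normalized cluster intensities fitted with a binding model.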

Row | Sequence | apparent KD of K4 kissing-loop reporter (input ligand: FMN 200 uM) | apparent KD of K4 kissing-loop reporter (input ligand: arginine 13.2 mM) | apparent KD of K4 kissing-loop reporter (input ligand: none) | apparent KD of K4 kissing-loop reporter [1] | apparent KD of K4 kissing-loop reporter [2]
1 | AGAGUCACAUAAGGAUAUCCCUUGACGGGAACCAAGUGAUGUUUGGUUAGACGACCUCUUAUCACGGGAGAAGGUAUAUUUGUAU [theeternabot_sameState_KL_FMN_B_27] | 724 nM | 580 nM | 889 nM | 676 nM | 612 nM
2 | AUUAAUAUCACGGCCGCCACUGAAUAUUGUUUUUAUAUUUAGAAUAAUUGCCAGUGAUGUUGGAUCAGGACCGGGUGAUUUUAUA [JR_SSTryptoB_Sub008] | 775 nM | 489 nM | 727 nM | 739 nM | 360 nM
3 | UGAUAGGACAGAAGGAGCGGUAGUGAUGUUGCCAAAAGAAUAAGGUGUCAAAAGACACCCUGCCAGGUAGGUCGCUGUCCUAUCU | 139 nM | 189 nM | 144 nM | 188 nM | 120 nM
4 | GAUGCAUAUUCCUGGAGGAAGAUGGUUAAGAAGGAUAUCAAAGCCGUGAGAAGGUCUAAACCUAAUAGUCGAGUGAUGUUCGACC [theeternabot_sameState_KL_FMN_A_35] | 231 nM | 309 nM | 356 nM | 428 nM | 278 nM
5 | AUGCGCGCGGCGGCCGCCACUCGCAUGAGAGUGAUGUUCUCGCCGGGCCCGGAAGGGCCCGGUGUGAGGACCGGGCCGGGCUGCG [#2 Same State - Tryptophan B Attempt #17 (HarryS)] | 121 nM | 73.2 nM | 175 nM | 278 nM | 344 nM
6 | CUUCUUCUUCCAAUCUCGGCCAACACGGGACGAGGACCGGUACGGCCGCCACUCGUGCAGUGAUGUUGCACGAUGGUGACGGAGA [Engebiisso] | 98.5 nM | 81.1 nM | 84.6 nM | 74.7 nM | 113 nM
7 | AGGUCCGAGCCUGCAAAGGCUCGGACCUGUUAGGAUAUGACGUUAUUCAGAAGGGAUGGGUGGAGUGAUGUUCCACCCGCAAGGG [#2 Same State - FMN A Attempt #7 (HarryS)] | 142 nM | 105 nM | 120 nM | 98.4 nM | 113 nM
8 | GGAUUGCCAGUGAUGUUGGCAUAAACUGAAGGAGCGCGUGAAAACGCAGGUAGGUCGCAGAACCUUGCCAACUAUAUUAUUUACC [Ex Arginine A K4 22] | 111 nM | 137 nM | 123 nM | 146 nM | 102 nM
9 | UGUGUUUACCUGACUCAGUGAUGUUGAGAAGGAGCGUGCGAAGGCACAGGUAGGUCGCUCAACCUAAAUUCAGGUGAGCACUAAA | 249 nM | 168 nM | 344 nM | 281 nM | 250 nM
10 | UCGAUGGCCAGCGAUACCAGCCCAGUGAUGUUGGGCACAUGGUUGCGGGAAAUCCCAUUGGGCCCUUGGCAGCGCUUGCAUGGGU [Dizaisa] | 148 nM | 121 nM | 140 nM | 120 nM | 125 nM
11 | CUGUUUUAGUCGGCCGCCACUGCAAGUGAUGUUUGGAGUAUUAUGCCGUUUCUGUCCAUUGAACCCAGGACCGGGACCGGAUCGU [theeternabot_exclusion_KL_Trp_B_8] | 212 nM | 167 nM | 206 nM | 186 nM | 189 nM
12 | CCGCUACCCUCAGGAUAUUAAAUAUUAGUGAUGUUAGUAAACCGAUGGCGAAAGCCAUCGGUAUGUUGAGAAGGGAGGGUAGCGG [whbob_SS_FMNB__2th197] | 403 nM | 1810 nM | 2240 nM | 891 nM | 880 nM
13 | GGUACAGCGGAAGGAUAUCUGUCAUGGACGAUCGUAGCUUGAGCUCCCUGAGUGAUGUUUAGGAUGAGAGAAGGUCCACUCGUAU [theeternabot_exclusion_KL_FMN_B_2] | 673 nM | 358 nM | 591 nM | 626 nM | 450 nM
14 | CCUAUCUCAUACGAUACCAGUGAAUUAAUAUUUAUAAGCAGUGAUGUUGCAUUCCAAGUACACCCUUGGCAGCGUAUGGGAUAGG [Ex Theophylline B K4 20] | 147 nM | 151 nM | 151 nM | 159 nM | 120 nM
15 | UUGUUUGGUUGAGAGGUUGGGCGAGAUGAUACCAGUAUAGUAUUGUACCCUUGGCAGCAUAGGAGAGAUAUAGUGAUGUUGUAUG [SSTheophA.W] | 419 nM | 320 nM | 457 nM | 416 nM | 328 nM
16 | AAACGCUGGUGAAUAACACUAGCGAAUUCGCGAGGACCGGUACGGCCGCCACUCGCUAACUGCGAGUGAUGUUCGAUAAUAAAAU [Mat - Mod of OpenEnded 3 - D2] | 141 nM | 107 nM | 154 nM | 189 nM | 142 nM

Row | Sequence | apparent KD of K4 kissing-loop reporter (input ligand: FMN 200 uM) | apparent KD of K4 kissing-loop reporter (input ligand: arginine 13.2 mM) | apparent KD of K4 kissing-loop reporter (input ligand: none) | apparent KD of K4 kissing-loop reporter [1] | apparent KD of K4 kissing-loop reporter [2]
17 | CUGAUGCUGAUGCGGUGGCCGGUGGUCGUGCGAGGACCGGUACGGCCGCCACUCGCAUGAGUGAUGUUCAUGUGUCGUCGUCGUC [#04 K4 Tryptophan A Exclusion] | 204 nM | 133 nM | 169 nM | 164 nM | 172 nM
18 | CGCGCGCGUUUGAGAGGGCGCGCGCGAAGUGAGGAUAUUUAGGGAGAAAGAAGGCACUAUAAAAUAUAGUGAUGUUAUAUAAGGG [SSFMNA.F] | 603 nM | 111 nM | 288 nM | 469 nM | 186 nM
19 | UCUGCAAAGUCGGCCGCCACUCCGGGCCCUAUAAAUGGGCGCAGUGAUGUUGCGGCUAGGCCUCUGAGGACCGGGACUUCGUAGA [Somale] | 62.8 nM | 52.1 nM | 54.7 nM | 166 nM | 107 nM
20 | UAUUUGAUGUCAGGAUAUCGUAUACGAGUGAUGUUCGUAUUUCUACUAUAGAUUAUUUAAAUUUUUCGAGAAGGGACAACAUUUA [#04 K4 FMN B Same State] | 151 nM | 93.3 nM | 115 nM | 140 nM | 122 nM
21 | GGUGUUGUUUGUGCCGUUUUCCUCGUUCCUCGAGGACCGGUACGGCCGCCACUCGAGUGAUGUUUGGGUAGCGAUCCCUGUUAGU [Bdazzled - #9 Exc. Tryptophan A] | 868 nM | 646 nM | 871 nM | 802 nM | 766 nM
22 | AGAGAUAUAUGAGGAUAUGGGUUAGUUAAUGAGUUAGUUUUAGUGUUGUUUGGUUAGUGAUGUUAUUUAGAAGGCGUGAGUGAUG [cqqbmullin] | 98.4 nM | 60.8 nM | 70 nM | 112 nM | 66.2 nM
23 | UGAUGUUUAGUUCACCCAGUGAUGUUGGAAGGAGCGUGCGAAAGCACAGGUAGGUCGCCAACCUAAAAGUGUCUUGAUUAUCUAA [JR_Nu_ExcArginiA_Sub028] | 352 nM | 317 nM | 444 nM | 460 nM | 289 nM
24 | ACAUCGGUUGAGAGUGAUGUUCCUUGUGUUCGAGGACCGGUACGGCCGCCACUCGGGUAGAAAAUAACAGAUGUGUUUCCUUUUU [BDazzled - #18 SS Tryptophan A] | 164 nM | 80.5 nM | 171 nM | 181 nM | 209 nM
25 | CUUGUACAAGUGAUGUUUGUUAUAUCCGAAGGAGCGUCGUAAUAGACAGGUAGGUCGCGGAGUAAGAUAGUUUUUUUAAUAUCAU [JR_Nu_SSArginiA_Sub029] | 435 nM | 338 nM | 556 nM | 462 nM | 288 nM
26 | CGCCGUAAGGCGGUCGCUCCCACUCCGGAAGGAGCGCCCGUAAGGGCAGGUAGGUCGCCGGAGUGAUGUUCCGGUGGAGGGACCG [#2 Exclusion - Arginine A Attempt #8 (Inspired by Omei)] | 323 nM | 274 nM | 339 nM | 352 nM | 330 nM
27 | GGGAGGAGUGGUGUUGAUUAAGAAGCGGAAGGAGCGCCGAAGAAGGCAGGUAGGUCGCCGAAAUAUAGUGAUGUUAUAUAAAGGG [ExArg.C] | 340 nM | 198 nM | 281 nM | 262 nM | 208 nM
28 | UACCCGUGCUACUCCAUCCAUGCCACACCGCGAGGACCGGUACGGCCGCCACUCGUCGGAAAGUGAUGUUUUCAAACAAAGUUGC | 151 nM | 93.4 nM | 142 nM | 292 nM | 76.9 nM
29 | AUGCGGUGGAGGCUACCGCUAUUCUGAGAAGGAGCGCAGAUGACUGCAGGUAGGUCGCUUAGAGCUUGCAGUGAUGUUGCAAGUU [Islatimaed] | 200 nM | 168 nM | 191 nM | 174 nM | 204 nM
30 | UAGAGGAGACUCUAAUUCCUUAAGUCCGAAGGAGCGACCCAAUGGUCAGGUAGGUCGCGGACAAUCCUAGUGAUGUUAGGAUCUG [Arg A SS t5a] | 141 nM | 136 nM | 160 nM | 170 nM | 129 nM
31 | CUCGAGUGAUGUUCGAUUAUGUAUACAGAUACCAGUGAAUUUUAACACCCUUGGCAGCUGGUAGAAUCUUUGUAAUUUUAACUAG [JR_ExcTheophyA_Sub002] | 162 nM | 253 nM | 180 nM | 230 nM | 134 nM
32 | GGAUAACAGGCAGGAUAUGCUUAGUAGUAAGGCCAUAUAUACGUAUAGAGUGAUGUUUUGUACAAGGCAGAAGGGCUAAAUCCAU [FMN B Excl V2 (+4G)] | 536 nM | 240 nM | 421 nM | 393 nM | 254 nM
